Measured values taken from US20230331827A1, “POTASSIUM CHANNEL INHIBITORS” (priority 2017, published 2023).
Read-outs that look alike come from different tables or passages of the source.

Assays:
human Kv1.3 (huKv1.3) = target: T1, human Kv1.3 (huKv1.3) (Homo sapiens, UniProt P22001); experiment: QPatch automated patch-clamp, CHO cells stably expressing human Kv1.3 (Examples 19-21); format: cell-based
T1 construct: host or cells: CHO
How it was run: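 Whole-cell currents were recorded in extracellular solution of 145 mM NaCl, 4 mM KCl, 2 mM CaCl2, 1 mM MgCl2, 10 mM HEPES, 10 mM glucose (pH 7.4), with a KF/KCl/EGTA pipette solution (pH 7.2). From -80 mV, +30 mV pulses of 300 ms were applied every 10 s, with four ascending KnotBody concentrations added extracellularly. Peak outward current was averaged (n = 3-6) and IC50 fitted from concentration-response curves.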

human Kv1.1 (huKv1.1) = target: T2, human Kv1.1 (huKv1.1) (Homo sapiens, UniProt Q09470); experiment: QPatch automated patch-clamp, CHO-S cells expressing huKv1.1 (Examples 20-21); format: cell-based; details: four-point curves of FIG. 33, Table E20
T2 construct: expressed in transfected cells; host or cells: Freestyle CHO-S
T2 sequence (Q09470 whole entry): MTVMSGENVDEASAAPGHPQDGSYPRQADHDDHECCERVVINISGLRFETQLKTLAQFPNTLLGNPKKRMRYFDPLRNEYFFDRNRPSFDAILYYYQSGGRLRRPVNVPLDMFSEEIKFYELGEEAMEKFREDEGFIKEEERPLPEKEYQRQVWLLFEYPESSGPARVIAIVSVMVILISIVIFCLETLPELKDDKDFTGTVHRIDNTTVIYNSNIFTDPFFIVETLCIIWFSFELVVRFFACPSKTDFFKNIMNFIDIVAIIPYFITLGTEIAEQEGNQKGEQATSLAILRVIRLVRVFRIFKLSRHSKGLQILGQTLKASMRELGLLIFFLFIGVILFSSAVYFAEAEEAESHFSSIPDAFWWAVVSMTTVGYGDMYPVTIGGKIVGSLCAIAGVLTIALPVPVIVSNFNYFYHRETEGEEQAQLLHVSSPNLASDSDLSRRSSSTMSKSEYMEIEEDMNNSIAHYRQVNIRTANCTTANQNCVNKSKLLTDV
Description: 1. The effect of these KnotBodies on cells expressing human Kv1.1 (huKv1.1) and Kv1.3 (huKv1.3) channels was assessed using QPatch automated patch-clamp platform (Sophion).
To generate huKv1.1 expressing cells, Freestyle CHO-S cells (Cat. no. R80007, Life Technologies, California, USA) were transfected with pINT50-Tr plasmid encoding huKv1.1 gene using the MaxCyte STX (MaxCyte) transfection system. In pINT50-Tr plasmid, huKv1.1 gene is under the control of a CMV promoter. 64 µg of the plasmid DNA were added to 400 µl of Freestyle CHO-S cells (at a density of 1 × 10^8 cells/ml) in Electroporation Buffer (GE Healthcare Life Sciences, Cat. no. EPB1) in an OC-400 processing assembly (MaxCyte). Following electroporation, the cells were transferred to a well of a 24-well plate containing 200 U/ml DNAse I (Sigma, D4263) and incubated for 20 minutes at 37° C. and 5% CO2. The cells were then transferred into a 100 ml shaker flask containing 20 ml of CD Opticho Media (Thermo Fisher Scientific, Cat.No 12681-011,) supplemented with 8 mM L-Glut (Thermo Fisher Scientific, cat. no. 25030-024). The cells were incubated for 24 hours at 37° C. and 5% CO2 (and 75% humidity and shaking at 800 rpm) prior to testing using automated patch clamp electrophysiology.
For the testing of Kv1.1 and Kv1.3, CHO-S expressing huKv1.1 (described above) or CHO cells stably expressing huKv1.3 (Charles River Lab) were analysed using the QPatch electrophysiology assay in the presence or absence of the KnotBody fusions. Internal and external physiological solutions were freshly prepared prior to the assay. The extracellular solution contained 145 mM NaCl, 4 mM KC1, 2 mM CaC12, 1 mM MgC12, 10 mM HEPES and 10 mM glucose; the pH was adjusted to 7.4 with NaOH; the osmolarity was ~ 305 mOsm/L. The intracellular solution contained: KF (120 mM), KC1 (20 mM), HEPES (10 mM) EGTA (10 mM); the pH was adjusted to 7.2 with KOH; osmolarity was ~ 300 mOsm/L.
A series of depolarising voltage (channel activating) pulses were used to monitor the channel currents upon adding control (extracellular solution) to define a control baseline of current activity. To these measured control currents four, ascending concentrations of KnotBodies (including previously described KB_A12_ShK and KB_A12_KTX described in Example 8) or parental antibody isotypes (control molecules) were applied to the external bathing solution. KnotBodies KB_A12 and KB_A07 (EETI-II fusions) were used as isotype controls for the testing. From a holding voltage of -80 mV a depolarising, activating voltage pulses of […] were applied for 300 ms, every 10 seconds. The elicited, maximum outward current values measured during the activating step for each solution exchange period, averaged (n = 3 - 6 for each concentration applied) and plotted as concentration-response curves (see FIG. 33). From these concentration-response curves IC50 values were calculated (see Table E20).
For the testing of Kv1.1 and Kv1.3, CHO-S expressing huKv1.1 (see Example 20 and below) or CHO cells stably expressing huKv1.3 (Charles River Lab) were analysed using the QPatch electrophysiology assay in the presence or absence of the KnotBody fusions - see details in Examples 19 and 20.
In addition to the CHO-S transiently expressing huKv1.1 (described in Example 20), CHO-S cells with poly-clonal stable expression of huKv1.1 cells were also made and used in the QPatch electrophysiology assay. To generate the polyclonal stable huKv1.1 cells from the transiently expressing cells described in Example 20, after a 24 hour incubation period the selection antibiotic Puromycin (catalogue no. A1 1138-03, Life Technologies, California, USA) was added to culture media. Then, for the first 14 days puromycin was at 10 µg ml-1 media; at days 15-28 puromycin was at 20 µg ml-1 media. Cell cultures were seeded at 2.5 x 10^5 cells ml^-1 into fresh culture media and puromycin twice per week through this selection growth period. […]

T1 sequence (P22001 whole entry): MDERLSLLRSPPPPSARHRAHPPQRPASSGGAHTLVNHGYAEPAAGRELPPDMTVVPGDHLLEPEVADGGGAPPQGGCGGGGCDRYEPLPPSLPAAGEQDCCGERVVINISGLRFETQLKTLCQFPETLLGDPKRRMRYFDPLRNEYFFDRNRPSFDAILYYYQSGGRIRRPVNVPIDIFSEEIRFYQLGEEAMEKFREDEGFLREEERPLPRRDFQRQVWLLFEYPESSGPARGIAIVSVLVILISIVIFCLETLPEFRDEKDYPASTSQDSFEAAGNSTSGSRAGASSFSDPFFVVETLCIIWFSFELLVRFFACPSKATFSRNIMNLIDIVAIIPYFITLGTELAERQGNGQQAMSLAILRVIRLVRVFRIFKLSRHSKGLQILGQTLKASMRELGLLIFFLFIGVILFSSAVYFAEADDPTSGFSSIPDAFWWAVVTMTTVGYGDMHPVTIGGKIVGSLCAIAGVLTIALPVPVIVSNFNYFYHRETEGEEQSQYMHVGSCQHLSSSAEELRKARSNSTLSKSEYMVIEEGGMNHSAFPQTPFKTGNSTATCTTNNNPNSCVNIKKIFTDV

B1: KB_A12_ShK: ShK toxin in VL CDR2 of KB_A12, IgG1 (antibody, V domains shown)
VH: EVQLVESGGGLVRPGGSLRLSCAASGFTFSSYAMSWVRQAPGKGLEWVSAISGSGGSTYYADSVKGRFTISRDNTKNSLYLQMTSLRADDTAFYYCVKDFGPGYGTGWFDYWGPGTLVTVSS
VL: QSVLTQPPSVSEAPRQRVTITCSGSSSNIGNNAVNWYQQLPGKAPKLLIYAAGRRSCIDTIPKSRCTAFQCKHSMKYRLSFCRKTCGTCANSGVSDRFSAAKSGTSASLAINGLRSEDEADYYCAAWDDSLNGYVFGTGTKLTVLG
In the case of B1, the Fold difference (human Kv1.3 (huKv1.3); Kv1.1 IC50 over Kv1.3 IC50, Table E20) is reported as 3, the IC50 (human Kv1.3 (huKv1.3); four-point curves of FIG. 33, Table E20, read-out: Kv1.3 IC50) is reported as 13 nM and the IC50 (human Kv1.3 (huKv1.3); huKv1.3, four-point curves of FIG. 32, Table E19, read-out: IC50) is reported as 8.6 nM. For the same molecule, the IC50 (human Kv1.1 (huKv1.1)) was 40 nM.
